Data on seven molecules can be found in US20220363757A1 (SYMPHOGEN A S, published 2022).

The target in assay [1] is T1, human LAG-3 on transiently transfected CHO-S cells (human, UniProt P18627 23-525).
T1 construct: also called huLAG-3
T1 sequence: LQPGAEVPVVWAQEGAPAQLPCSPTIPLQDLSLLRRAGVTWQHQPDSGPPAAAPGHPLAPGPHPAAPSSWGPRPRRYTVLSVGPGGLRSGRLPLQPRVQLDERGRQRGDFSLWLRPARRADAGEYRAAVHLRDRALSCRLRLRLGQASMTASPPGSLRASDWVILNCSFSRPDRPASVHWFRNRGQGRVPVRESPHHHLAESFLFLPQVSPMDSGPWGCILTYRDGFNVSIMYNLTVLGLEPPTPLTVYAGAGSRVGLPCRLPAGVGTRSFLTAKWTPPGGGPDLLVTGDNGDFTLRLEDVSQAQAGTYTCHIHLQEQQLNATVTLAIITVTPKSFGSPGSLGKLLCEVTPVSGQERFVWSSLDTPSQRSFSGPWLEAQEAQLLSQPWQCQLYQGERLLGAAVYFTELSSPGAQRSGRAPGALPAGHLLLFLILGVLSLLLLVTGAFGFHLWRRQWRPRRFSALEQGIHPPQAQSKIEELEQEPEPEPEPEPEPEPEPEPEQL
Put plainly: flow cytometry on transfected CHO-S cells.

In assay [2] the target is T2, R-PE-labeled recombinant human LAG-3-Fc chimera protein (R&D Systems) (human, UniProt P18627 23-450, conjugated to R-phycoerythrin).
T2 construct: bought; also called LAG-3-Fc-PE; soluble LAG-3; not shown: Fc of the bought chimera, not described
T2 sequence: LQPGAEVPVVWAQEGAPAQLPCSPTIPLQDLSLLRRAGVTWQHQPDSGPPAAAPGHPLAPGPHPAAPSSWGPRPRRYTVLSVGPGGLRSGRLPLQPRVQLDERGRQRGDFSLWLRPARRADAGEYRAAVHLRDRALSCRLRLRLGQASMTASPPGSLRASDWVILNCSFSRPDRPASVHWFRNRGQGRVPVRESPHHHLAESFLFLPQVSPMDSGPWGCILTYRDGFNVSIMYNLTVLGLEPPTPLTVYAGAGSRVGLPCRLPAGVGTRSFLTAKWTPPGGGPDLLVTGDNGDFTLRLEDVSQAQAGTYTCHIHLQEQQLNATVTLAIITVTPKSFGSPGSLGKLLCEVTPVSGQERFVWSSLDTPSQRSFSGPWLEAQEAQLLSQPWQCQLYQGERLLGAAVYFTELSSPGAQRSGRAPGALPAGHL
Put plainly: flow cytometric competition, LAG-3-Fc-PE binding to MHCII on A375 cells, antibody 20 ug/mL. Background: In flow cytometry, cells or beads pass a laser one at a time.

B1: antibody 15595 (antibody, V domains shown)
VH: QVQLVQSGAEVKKPGASVKVSCKVSGYSLTEISMHWVRQAPGKGLEWMGGFDPEDGETIYAQRFQGRVIMTEDTSTDTAYMELSSLRSEDTAVYYCATGGWGPNWFDPWGQGTLVTVSS
VL: DIQMTQSPSSVSASVGDRVTITCRASQGISSWLAWYQQKPGKAPKLLIYAASSLQSGVPSRFSGSGSGTDFTLTISSLQPEDFATYYCQQANSFPFTFGPGTKVDIKR
notes: OmniRat-derived human IgG1 LALA, kappa; also called 15595 (52)
For orientation: EC50 means the concentration that produces a half-maximal response. Higher therefore signals weaker potency. The molecule B1 registered a concentration for a half-maximal effect (EC50) in assay [1] of 0.05 nM. In assay [2], the “LAG-3/MHCII Blocking (%)” value turned out to be 94%.

B2: antibody 15646 (antibody, human IgG1, kappa, L234A L235A, V domains shown)
VH: QVQLQQWGAGLLKPSETLSLTCAVYGGSFSGYYWSWIRQPPGKGLEWIGEINHRGSTNYNPSLKSRVTISVDTSKNQFSLKLSSVTAADTAVYYCTRGEEWESLFFDYWGQGTLVTVSS
VL: EIVLTQSPATLSLSPGERATLSCRASQSISSYLAWYQQKPGQAPRLLIYGASNRATGIPARFSGSGSGTDFTLTISSLEPEDFAVYYCQQRSNWPLTFGGGTRVEIKR
notes: OmniRat-derived human IgG1 with L234A/L235A (LALA), kappa; also called 15646 (15)
B2: the EC50 in assay [1] is 0.1 nM. Further, the “LAG-3/MHCII Blocking (%)” value in assay [2] was determined as 49%.

B3: antibody 15532 (antibody, human IgG1, kappa, L234A L235A, V domains shown)
VH: QVQLQQWGAGLLRPSETLSLTCAVYGESFSGYYWNWIRQPPGKGLEWIGEINHSGSTNYNPSLKSRVTISVDTSKTQFSLKLSSVTAADTAVYYCARGWDLLDWNDYWNEYWGQGTLVTVSS
VL: EIVLTQSPATLSLSPGERATLSCRASQSVSSYLAWYQQKPGQAPRLLIYDASNRATGIPARFSGSGSGTDFTLTISSLEPEDFAVYYCQQRSNWPLTFGGGTKVEIKR
notes: OmniRat-derived human IgG1 LALA, kappa
Turning to B3, the EC50 in assay [1] was determined as 0.07 nM. The “LAG-3/MHCII Blocking (%)” value in assay [2] was found to be 89%.

B4: antibody 15431 (antibody, human IgG1, kappa, L234A L235A, V domains shown)
VH: QVQLQQSGPGLVKPSQTLSLTCAISGDSVSSNSAAWNWIRQSPSRGLEWLGRTYYRSKWYNDYAVSVKSRITINPDTSKNQFSLQLNSVTPEDTAVYYCARDDDWNDFDYWGQGTLVTVSS
VL: EIVLTQSPATLSLSPGERATLSCRASQSVSSYLAWYQQKPGQAPRLLIYDASNRATGIPARFSGSGSGTDFTLTISSLEPEDFAVYYCQQRSNWPLTFGGGTKVEIKR
notes: OmniRat-derived human IgG1 LALA, kappa; also called 15431 (38); 15431 (83)
In assay [1], B4 came in with an EC50 of 0.04 nM. For the same molecule, the “LAG-3/MHCII Blocking (%)” value in assay [2] amounted to 92%.

B5: antibody 15723 (antibody, human IgG1, kappa, L234A L235A, V domains shown)
VH: QVQLQQWGAGLLKPSETLSLTCAVYGGSFSGYYWNWIRQPPGKGLEWIGEINHSGSTNYNPSLKSRVTISVDTSKNQFSLKLSSVTAADTAVYYCARGEDWGESFFDYWGQGTLVTVSS
VL: EIVLTQSPATLSLSPGERATLSCRASQSVSSYLAWYQQKPGQAPRLLIYAASNRATGIPARFSGSGSGTDFTLTISSLEPEDFAVYYCQQRSNWPLTFGGGTKVEIKR
notes: OmniRat-derived human IgG1 LALA, kappa; also called 15723 (39)
For B5, in assay [1], the concentration for a half-maximal effect (EC50) amounted to 0.09 nM. In assay [2], the “LAG-3/MHCII Blocking (%)” value was 55%.

B6: antibody 15011 (antibody, human IgG1, lambda, L234A L235A, V domains shown)
VH: EVQLLESGGGLVQPGGSLRLSCAASGFDFRSYAMMWVRQAPGKGLEWVGGINGEVGGSNTYYAPAVKGRATISRDNSKNTLYLQMNSLRAEDTAVYYCVKGAGACGICNDDIDAWGQGTLVTVSS
VL: SYELTQDPAVSVALGQTVRITCSGAGSYAGSYYYGWHQQKPGQAPVTVIYDNDKRPSNIPDRFSGSSSGNTASLTITGAQAEDEADYYCGSTNDNDDGGLFGSGTKVTVLG
notes: humanized chicken-derived antibody, human IgG1 constant region, lambda (IGLC1*01)
As to B6, in assay [2], the “LAG-3/MHCII Blocking (%)” value is 92%.

B7: antibody 15572 (antibody, human IgG1, kappa, L234A L235A, V domains shown)
VH: QLQLQESGPGLVKPSETLSLTCTVSGDSISSSSYYWGWIRQPPGKGLEWIGSIFYSGNTYYNPSLKSRVTISVDTSKNQFSLKLSSVTAADTAVYYCAREDDFLTDYYGAFDIWGQGTMVTVSS
VL: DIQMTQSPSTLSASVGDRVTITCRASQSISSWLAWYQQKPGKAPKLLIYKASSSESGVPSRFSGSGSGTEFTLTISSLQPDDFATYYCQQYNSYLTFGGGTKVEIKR
notes: OmniRat-derived human IgG1 LALA, kappa; also called 15572 (91)
Consider B7, for which the EC50 in assay [1] worked out at 0.07 nM. The “LAG-3/MHCII Blocking (%)” value in assay [2] came out at 37%.
